Molecular target: T33-51 protein cage subunit B
Experiment: native MS; SEC-purified co-expressed cage, 2 uM in 200 mM ammonium acetate pH 7.4; Q Exactive UHMR
Conditions: scale: copies of A with 12 copies of B in the cage

- stoichiometry N: 11
Substance: T33-51 protein cage subunit A (designed binder)
